The results in this text go back to PMC10899635, “Q586B2 is a crucial virulence factor during the early stages of Trypanosoma brucei infection that is conserved amongst trypanosomatids” (Nature Communications, 2024).

The assay concerns the target recombinant Q586B2 protein (Trypanosoma brucei brucei). The experiment in a line: SEC; size exclusion chromatography after IMAC; uniform peak of approximately 55 kDa.

As to “recombinant Q586B2 protein (natural protein)”, the stoichiometry N (in general, the number of molecules, sites or subunits per partner or assembly) was 4.
